Reference: publication PMC3444665 (Virology, 2012)
Where a chain is given by its changes, count along the chain named.

Tests used:
Assay in all cases: pull-down
GST-Agno (F31A) = target: T1, GST-Agno (F31A) (JC virus (JCV Mad-1), UniProt P03086 1-71, F31A)
T1 sequence: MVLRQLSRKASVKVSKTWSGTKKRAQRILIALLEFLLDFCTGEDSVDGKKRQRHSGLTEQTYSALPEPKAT

GST-Agno (F35A) = target: T2, GST-Agno (F35A) (JC virus (JCV Mad-1), UniProt P03086 1-71, F35A)
T2 sequence: T1 sequence with A31F, F35A

GST-Agno (F39A) = target: T3, GST-Agno (F39A) (JC virus (JCV Mad-1), UniProt P03086 1-71, F39A)
T3 sequence: T1 sequence with A31F, F39A

Measured: fold decrease of the interaction against WT agnoprotein

B1: JCV large T-antigen in whole-cell extracts of HJC-15b cells (natural protein)
chain: MDKVLNREESMELMDLLGLDRSAWGNIPVMRKAYLKKCKELHPDKGGDEDKMKRMNFLYKKMEQGVKVAHQPDFGTWNSSEVPTYGTDEWESWWNTFNEKWDEDLFCHEEMFASDDENTGSQHSTPPKKKKKVEDPKDFPVDLHAFLSQAVFSNRTVASFAVYTTKEKAQILYKKLMEKYSVTFISRHGFGGHNILFFLTPHRHRVSAINNYCQKLCTFSFLICKGVNKEYLFYSALCRQPYAVVEESIQGGLKEHDFNPEEPEETKQVSWKLVTQYALETKCEDVFLLMGMYLDFQENPQQCKKCEKKDQPNHFNHHEKHYYNAQIFADSKNQKSICQQAVDTVAAKQRVDSIHMTREEMLVERFNFLLDKMDLIFGAHGNAVLEQYMAGVAWIHCLLPQMDTVIYDFLKCIVLNIPKKRYWLFKGPIDSGKTTLAAALLDLCGGKSLNVNMPLERLNFELGVGIDQFMVVFEDVKGTGAESRDLPSGHGISNLDCLRDYLDGSVKVNLERKHQNKRTQVFPPGIVTMNEYSVPRTLQARFVRQIDFRPKAYLRKSLSCSEYLLEKRILQSGMTLLLLLIWFRPVADFAAAIHERIVQWKERLDLEISMYTFSTMKANVGMGRPILDFPREEDSEAEDSGHGSSTESQSQCFSQVSEASGADTQENCTFHICKGFQCFKKPKTPPPK
> 3 fold: all assays above
